Data reported in the supplement of paper PMC10065799, “High-throughput profiling of sequence recognition by tyrosine kinases and SH2 domains using bacterial peptide display” (eLife, 2023).

Legend:
[1] = test system: AncSZ; assay: phosphorylation enrichment, bacterial display (enrichment ratio); higher = better substrate or ligand; peptides without Tyr show the background
[2] = molecular target: EPHB1 (UniProt P54762); assay: as above
[3] = molecular target: EPHB2 (UniProt P29323); assay: as above
Chain of EPHB2 (P29323 whole entry, looked up): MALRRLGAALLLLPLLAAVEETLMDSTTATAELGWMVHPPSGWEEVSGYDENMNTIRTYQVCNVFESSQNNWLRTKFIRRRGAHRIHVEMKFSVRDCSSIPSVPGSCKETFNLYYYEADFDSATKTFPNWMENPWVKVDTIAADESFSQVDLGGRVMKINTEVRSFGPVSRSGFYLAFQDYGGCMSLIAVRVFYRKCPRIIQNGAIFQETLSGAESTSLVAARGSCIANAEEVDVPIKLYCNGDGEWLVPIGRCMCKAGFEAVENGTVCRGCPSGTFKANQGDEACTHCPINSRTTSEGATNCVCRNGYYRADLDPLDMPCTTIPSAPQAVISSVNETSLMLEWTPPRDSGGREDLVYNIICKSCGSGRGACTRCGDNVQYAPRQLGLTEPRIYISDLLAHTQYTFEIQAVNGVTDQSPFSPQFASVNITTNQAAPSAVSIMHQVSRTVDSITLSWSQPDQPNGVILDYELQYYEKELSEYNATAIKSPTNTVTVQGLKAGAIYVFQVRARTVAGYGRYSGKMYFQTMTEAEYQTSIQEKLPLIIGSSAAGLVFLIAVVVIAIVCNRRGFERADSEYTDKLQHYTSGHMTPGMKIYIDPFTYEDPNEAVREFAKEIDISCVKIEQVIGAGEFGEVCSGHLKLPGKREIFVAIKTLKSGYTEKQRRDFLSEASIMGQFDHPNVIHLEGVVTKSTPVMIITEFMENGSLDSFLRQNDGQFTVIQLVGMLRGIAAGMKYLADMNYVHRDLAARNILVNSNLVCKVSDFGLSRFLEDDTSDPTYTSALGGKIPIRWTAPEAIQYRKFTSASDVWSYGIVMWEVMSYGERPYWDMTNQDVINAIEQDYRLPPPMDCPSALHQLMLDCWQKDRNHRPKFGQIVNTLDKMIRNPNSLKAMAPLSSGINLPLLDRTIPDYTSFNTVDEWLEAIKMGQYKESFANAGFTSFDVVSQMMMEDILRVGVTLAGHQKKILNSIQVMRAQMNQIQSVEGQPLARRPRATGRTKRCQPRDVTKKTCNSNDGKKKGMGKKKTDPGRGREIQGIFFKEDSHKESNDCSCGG

[4] = molecular target: FGFR1 (UniProt P11362); assay: as above
[5] = molecular target: FGFR3 (UniProt P22607); assay: as above
[6] = test system: Fer (mouse); assay: as above
[7] = molecular target: Fes (UniProt P07332); assay: as above
Chain of Fes (P07332 whole entry, looked up): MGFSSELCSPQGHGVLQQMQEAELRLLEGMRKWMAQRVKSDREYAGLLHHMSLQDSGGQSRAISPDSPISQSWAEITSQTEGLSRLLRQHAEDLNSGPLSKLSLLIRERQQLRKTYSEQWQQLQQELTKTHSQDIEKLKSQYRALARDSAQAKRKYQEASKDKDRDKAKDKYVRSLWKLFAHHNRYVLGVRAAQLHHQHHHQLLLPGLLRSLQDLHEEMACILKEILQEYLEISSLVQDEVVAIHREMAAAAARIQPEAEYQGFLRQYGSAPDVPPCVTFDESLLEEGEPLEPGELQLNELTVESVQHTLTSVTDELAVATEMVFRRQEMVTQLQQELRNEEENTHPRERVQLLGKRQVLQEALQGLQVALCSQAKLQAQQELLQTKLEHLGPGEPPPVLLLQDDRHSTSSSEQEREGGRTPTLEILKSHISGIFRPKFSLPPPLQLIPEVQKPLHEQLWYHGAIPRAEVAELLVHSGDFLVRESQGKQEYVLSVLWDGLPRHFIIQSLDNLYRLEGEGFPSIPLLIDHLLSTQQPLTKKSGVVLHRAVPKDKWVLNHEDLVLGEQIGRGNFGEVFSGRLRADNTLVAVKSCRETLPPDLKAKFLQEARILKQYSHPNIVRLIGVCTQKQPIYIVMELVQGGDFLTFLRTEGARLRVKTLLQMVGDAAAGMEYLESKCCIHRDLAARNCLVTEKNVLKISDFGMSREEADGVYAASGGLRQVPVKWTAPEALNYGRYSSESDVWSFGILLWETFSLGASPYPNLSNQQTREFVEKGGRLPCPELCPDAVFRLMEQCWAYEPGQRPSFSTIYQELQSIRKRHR

[8] = molecular target: Fyn (UniProt P06241); assay: as above
Chain of Fyn (P06241 whole entry, looked up): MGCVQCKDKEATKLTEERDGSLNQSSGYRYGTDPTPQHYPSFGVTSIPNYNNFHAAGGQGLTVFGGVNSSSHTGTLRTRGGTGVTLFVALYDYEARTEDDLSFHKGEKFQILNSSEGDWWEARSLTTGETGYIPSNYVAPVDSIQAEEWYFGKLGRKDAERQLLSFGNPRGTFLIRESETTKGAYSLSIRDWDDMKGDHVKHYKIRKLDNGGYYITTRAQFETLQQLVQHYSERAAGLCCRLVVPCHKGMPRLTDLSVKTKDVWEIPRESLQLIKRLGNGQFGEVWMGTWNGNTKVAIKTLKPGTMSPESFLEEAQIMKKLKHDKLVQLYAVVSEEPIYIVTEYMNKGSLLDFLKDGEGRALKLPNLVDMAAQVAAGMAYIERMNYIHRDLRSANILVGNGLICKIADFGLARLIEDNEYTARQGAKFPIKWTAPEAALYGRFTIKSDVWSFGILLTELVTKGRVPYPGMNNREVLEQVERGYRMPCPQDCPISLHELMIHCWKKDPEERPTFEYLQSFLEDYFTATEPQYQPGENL

[9] = molecular target: Hck (UniProt P08631); assay: as above
[10] = molecular target: Jak2 (UniProt O60674); assay: as above
[11] = molecular target: MERTK (UniProt Q12866); assay: as above
Chain of MERTK (Q12866 whole entry, looked up): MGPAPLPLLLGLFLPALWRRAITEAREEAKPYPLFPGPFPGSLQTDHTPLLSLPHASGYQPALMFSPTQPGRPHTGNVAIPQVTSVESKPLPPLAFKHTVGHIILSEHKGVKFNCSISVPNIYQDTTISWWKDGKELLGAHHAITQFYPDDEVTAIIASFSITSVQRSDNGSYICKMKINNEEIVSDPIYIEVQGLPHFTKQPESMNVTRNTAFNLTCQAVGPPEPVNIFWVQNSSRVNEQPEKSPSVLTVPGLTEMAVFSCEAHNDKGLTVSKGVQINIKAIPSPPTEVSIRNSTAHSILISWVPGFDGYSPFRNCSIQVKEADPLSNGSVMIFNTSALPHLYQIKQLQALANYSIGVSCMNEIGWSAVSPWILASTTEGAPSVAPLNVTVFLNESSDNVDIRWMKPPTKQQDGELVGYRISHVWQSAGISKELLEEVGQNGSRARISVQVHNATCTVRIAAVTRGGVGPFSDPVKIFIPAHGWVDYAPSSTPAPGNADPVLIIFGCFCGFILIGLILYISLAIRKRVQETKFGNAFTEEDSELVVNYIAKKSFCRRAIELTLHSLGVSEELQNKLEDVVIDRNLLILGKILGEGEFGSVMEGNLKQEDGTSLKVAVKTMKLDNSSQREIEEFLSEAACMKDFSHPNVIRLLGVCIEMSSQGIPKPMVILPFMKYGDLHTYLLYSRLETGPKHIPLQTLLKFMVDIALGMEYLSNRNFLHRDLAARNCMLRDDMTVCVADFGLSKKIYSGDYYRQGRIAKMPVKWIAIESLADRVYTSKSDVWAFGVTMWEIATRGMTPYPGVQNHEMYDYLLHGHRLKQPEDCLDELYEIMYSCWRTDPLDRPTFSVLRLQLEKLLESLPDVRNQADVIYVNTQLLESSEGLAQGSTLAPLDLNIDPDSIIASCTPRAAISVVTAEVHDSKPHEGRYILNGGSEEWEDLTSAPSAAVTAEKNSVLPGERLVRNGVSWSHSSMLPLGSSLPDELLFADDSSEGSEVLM

[12] = test system: c-Abl (mouse); assay: as above
[13] = test system: c-Src; assay: as above
[14] = molecular target: Grb2 SH2 (UniProt P62993); assay: SH2 binding enrichment of the phosphorylated peptide, bacterial display (enrichment ratio); higher = better substrate or ligand; peptides without Tyr show the background
Chain of Grb2 SH2 (P62993 whole entry, looked up): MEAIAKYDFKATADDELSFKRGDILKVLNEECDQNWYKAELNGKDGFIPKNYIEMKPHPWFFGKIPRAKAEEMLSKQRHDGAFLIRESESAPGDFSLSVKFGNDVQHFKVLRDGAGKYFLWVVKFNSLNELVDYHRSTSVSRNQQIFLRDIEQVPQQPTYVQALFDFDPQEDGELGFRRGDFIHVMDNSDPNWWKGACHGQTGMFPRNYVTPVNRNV

[15] = molecular target: SHP2-C SH2; assay: as above
[16] = molecular target: c-Src SH2; assay: as above
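For SH2 binding enrichment of the phosphorylated peptide, bacterial display in this document: peptide library displayed on the E. coli surface as eCPX fusions, selected cells deep-sequenced, score is each peptide's frequency after selection divided by its frequency in the input.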
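For phosphorylation enrichment, bacterial display in this document: 11-residue human phosphosite peptides and single-mutation variants displayed on the E. coli surface, counted by deep sequencing, each peptide's frequency after selection divided by its frequency in the unselected input library; frequency after pTyr selection over input frequency; kinase dosed for 20-30% of maximal phosphorylation in three min.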

Chain of EPHB1 (P54762 whole entry, looked up): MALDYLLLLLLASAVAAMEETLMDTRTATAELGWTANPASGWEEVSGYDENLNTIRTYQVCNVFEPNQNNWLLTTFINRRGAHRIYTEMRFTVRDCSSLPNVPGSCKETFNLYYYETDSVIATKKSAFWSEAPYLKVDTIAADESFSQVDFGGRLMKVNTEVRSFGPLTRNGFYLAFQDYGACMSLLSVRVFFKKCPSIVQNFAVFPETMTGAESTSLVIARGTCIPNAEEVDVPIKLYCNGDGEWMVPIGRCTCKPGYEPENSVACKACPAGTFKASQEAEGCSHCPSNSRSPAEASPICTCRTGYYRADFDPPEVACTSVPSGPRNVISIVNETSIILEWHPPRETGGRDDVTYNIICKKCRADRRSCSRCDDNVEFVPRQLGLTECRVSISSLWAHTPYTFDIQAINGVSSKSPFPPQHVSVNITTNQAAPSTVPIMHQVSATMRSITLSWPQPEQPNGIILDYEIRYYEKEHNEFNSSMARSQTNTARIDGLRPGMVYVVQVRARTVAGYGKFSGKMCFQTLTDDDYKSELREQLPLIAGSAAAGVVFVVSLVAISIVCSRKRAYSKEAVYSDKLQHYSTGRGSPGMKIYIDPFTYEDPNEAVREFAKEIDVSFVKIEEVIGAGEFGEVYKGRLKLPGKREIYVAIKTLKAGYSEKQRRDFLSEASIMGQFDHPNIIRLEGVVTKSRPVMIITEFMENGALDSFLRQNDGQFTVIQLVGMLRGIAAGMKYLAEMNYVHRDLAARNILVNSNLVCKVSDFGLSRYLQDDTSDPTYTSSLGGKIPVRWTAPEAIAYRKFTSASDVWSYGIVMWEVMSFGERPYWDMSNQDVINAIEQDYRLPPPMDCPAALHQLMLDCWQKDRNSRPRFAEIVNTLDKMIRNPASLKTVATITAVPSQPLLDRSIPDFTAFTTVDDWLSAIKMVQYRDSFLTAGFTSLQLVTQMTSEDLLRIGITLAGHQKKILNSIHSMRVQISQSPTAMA

Row | Sequence | phosphorylation enrichment [1] | phosphorylation enrichment [2] | phosphorylation enrichment [3] | phosphorylation enrichment [4] | phosphorylation enrichment [5] | phosphorylation enrichment [6] | phosphorylation enrichment [7] | phosphorylation enrichment [8] | phosphorylation enrichment [9] | phosphorylation enrichment [10] | phosphorylation enrichment [11] | phosphorylation enrichment [12] | phosphorylation enrichment [13] | SH2 binding enrichment [14] | SH2 binding enrichment [15] | SH2 binding enrichment [16]
1 | TLPAFYMENFS [GLB1_Y552_G554E] | 1.19 | 1.25 | 0.789 | 0.439 | 0.855 | 0.64 | 1.62 | 0.484 | 0.523 | 1.37 | 0.947 | 1.2 | 0.735 | 0.853 | 0.638 | 0.484
2 | TLQIMYGCDVG [HLA-A_Y123_I119L] | 1.23 | 0.594 | 0.606 | 0.619 | 0.887 | 0.654 | 1.34 | 0.528 | 0.625 | 1.4 | 0.459 | 0.997 | 0.673 | 0.851 | 0.577 | 0.546
3 | TLQRMYGCDVG [HLA-B_Y123_S121R] | 0.857 | 0.535 | 0.665 | 0.5 | 0.771 | 0.542 | 1.14 | 0.568 | 0.501 | 1 | 0.545 | 0.816 | 0.554 | 0.851 | 0.454 | 0.493
4 | TLSGIYQFNIA [FOXL2_Y81_I84N_YF] | 0.891 | 0.76 | 0.555 | 0.543 | 0.539 | 7.33 | 0.741 | 4.21 | 2.98 | 0.696 | 5.39 | 0.676 | 4.73 | 1 | 0.971 | 0.742
5 | TLSGIYQFSIA [FOXL2_Y81_I84S_YF] | 1.31 | 1.63 | 1.05 | 0.852 | 0.952 | 6.02 | 1.04 | 5.53 | 3.82 | 0.919 | 6 | 1.27 | 5.19 | 1 | 0.836 | 0.533
6 | TNDMRYPMKSE [TGDS_Y302] | 0.675 | 0.345 | 0.46 | 0.486 | 0.523 | 0.359 | 0.672 | 0.445 | 0.438 | 0.579 | 0.469 | 0.557 | 0.424 | 0.861 | 0.697 | 0.548
7 | TNFRLYLRSLE [MTM1_Y71_YF] | 1.37 | 0.895 | 0.782 | 0.538 | 0.964 | 0.612 | 1.49 | 0.449 | 0.513 | 1.29 | 0.43 | 0.798 | 0.476 | 0.678 | 0.661 | 0.449
8 | TNITEYCRDLI [RECQL_Y492_K487T] | 1.01 | 0.614 | 0.617 | 0.498 | 0.743 | 0.491 | 1.35 | 0.497 | 0.569 | 1.25 | 0.415 | 0.81 | 0.56 | 0.759 | 0.6 | 0.537
9 | TPGPNYCPGFN [USH2A_Y463_R464C_YF] | 0.334 | 0.499 | 0.254 | 0.515 | 0.35 | 0.557 | 0.643 | 0.578 | 0.333 | 0.662 | 0.507 | 0.643 | 0.944 | 0.987 | 0.645 | 0.632
10 | TPRNTYKMTSL [MKI67_Y849] | 0.477 | 0.323 | 0.545 | 0.386 | 0.445 | 0.443 | 0.512 | 0.475 | 0.395 | 0.477 | 0.428 | 0.496 | 0.459 | 1.36 | 0.891 | 0.805
11 | TPRNTYKMTSV [MKI67_Y849_L854V] | 0.657 | 0.518 | 0.468 | 0.482 | 0.474 | 0.343 | 0.558 | 0.425 | 0.458 | 0.513 | 0.445 | 0.584 | 0.502 | 0.844 | 0.525 | 0.452
12 | TRSYKYLLLSM [NF1_Y491] | 0.833 | 0.754 | 0.69 | 0.433 | 0.624 | 0.434 | 0.832 | 0.477 | 0.422 | 0.887 | 0.485 | 0.852 | 0.494 | 1.64 | 2.46 | 1.15
13 | TSEASYFKSLN [NGEF_Y288_YF] | 0.972 | 0.438 | 0.599 | 0.563 | 0.487 | 0.535 | 0.717 | 0.684 | 0.359 | 0.626 | 0.481 | 0.51 | 0.677 | 0.56 | 0.589 | 0.4
14 | TSIGNYFKPWF [DHCR24_Y299_N294T_YF] | 1.03 | 8.6 | 4.48 | 1.66 | 1.23 | 0.473 | 0.778 | 0.428 | 0.46 | 7.94 | 4.44 | 6.12 | 0.348 | 0.907 | 8.03 | 0.83
15 | TSLAQYDSNSK [BMX_Y216] | 0.622 | 0.352 | 0.568 | 0.525 | 0.443 | 0.37 | 0.736 | 0.344 | 0.428 | 0.579 | 0.444 | 0.543 | 0.479 | 0.826 | 0.622 | 0.438
16 | TSNQEYLDLSM [FGFR1_Y766] | 1.14 | 0.8 | 0.626 | 1.53 | 1.17 | 0.457 | 1.08 | 0.485 | 0.464 | 1.03 | 0.437 | 1.02 | 0.492 | 0.863 | 0.781 | 0.487
17 | TTEHIYGDNFF [UBA7_Y524] | 0.776 | 0.458 | 0.514 | 0.417 | 0.552 | 2.38 | 0.882 | 5.55 | 2.41 | 0.671 | 0.597 | 0.754 | 4.18 | 0.797 | 0.577 | 0.478

Row | Sequence | phosphorylation enrichment [1] | phosphorylation enrichment [2] | phosphorylation enrichment [3] | phosphorylation enrichment [4] | phosphorylation enrichment [5] | phosphorylation enrichment [6] | phosphorylation enrichment [7] | phosphorylation enrichment [8] | phosphorylation enrichment [9] | phosphorylation enrichment [10] | phosphorylation enrichment [11] | phosphorylation enrichment [12] | phosphorylation enrichment [13] | SH2 binding enrichment [14] | SH2 binding enrichment [15] | SH2 binding enrichment [16]
18 | TTKAKYKTPIF [PLD2_Y573_T577I_YF] | 0.588 | 0.38 | 0.263 | 0.481 | 0.572 | 0.487 | 0.717 | 0.499 | 0.411 | 0.659 | 0.495 | 0.632 | 0.434 | 1.06 | 1.14 | 0.764
19 | TVEDHDFEGGI [TKT_Y563_Y563D_YF] | 1.06 | 0.692 | 0.543 | 0.578 | 0.873 | 0.525 | 1.14 | 0.561 | 0.538 | 1.05 | 0.452 | 0.765 | 0.472 | 0.737 | 0.515 | 0.422
20 | TVLGEYALPKG [CYP24A1_Y407] | 1.15 | 0.58 | 0.542 | 0.45 | 0.562 | 0.404 | 0.621 | 0.491 | 0.565 | 0.592 | 0.585 | 6.83 | 0.39 | 0.707 | 0.429 | 0.572
21 | TYGQVYKGRHV [TNIK_Y40] | 0.484 | 0.507 | 0.506 | 0.493 | 0.533 | 0.528 | 0.488 | 8.37 | 6.44 | 0.482 | 0.942 | 0.711 | 6.62 | 0.974 | 0.964 | 0.676
22 | VDASFYGGRGV [ANTXR2_Y381_YF] | 0.561 | 0.396 | 0.338 | 0.32 | 0.463 | 0.336 | 0.632 | 0.447 | 0.91 | 0.574 | 0.377 | 0.443 | 0.391 | 0.721 | 0.576 | 0.5
23 | VEDQYYRVDCY [FHL1_Y208_C209R] | 2.93 | 0.711 | 0.712 | 7.43 | 6.22 | 0.598 | 1.46 | 0.892 | 0.993 | 1.98 | 0.94 | 0.958 | 1.55 | 0.891 | 0.677 | 0.897
24 | VEKEKYVSYIS [JMJD1C_Y596_M591V] | 0.76 | 0.487 | 0.489 | 0.453 | 0.567 | 0.466 | 0.826 | 0.464 | 0.434 | 0.866 | 0.444 | 0.698 | 0.5 | 0.978 | 0.748 | 0.507
25 | VFAANYFKLLG [ROR2_Y645_D644N_YF] | 0.872 | 0.645 | 0.648 | 2.44 | 1.58 | 0.472 | 1.04 | 0.58 | 0.526 | 5.33 | 1.13 | 0.73 | 0.56 | 0.991 | 0.985 | 1.03
26 | VFAPDFIAGVS [NOB1_Y366_Y366F] | 0.69 | 0.52 | 0.479 | 0.664 | 0.619 | 0.392 | 1.02 | 0.436 | 0.435 | 0.775 | 0.469 | 0.709 | 0.501 | 0.584 | 0.727 | 0.551
27 | VFFGSYSCPFG [NKAP_Y104_R106C_YF] | 1.45 | 0.802 | 0.786 | 0.476 | 0.92 | 0.679 | 1.5 | 0.437 | 0.518 | 1.33 | 0.836 | 1.15 | 0.55 | 0.598 | 0.552 | 0.476
28 | VFSSDYFSFVL [USP24_Y2138_YF] | 2.28 | 1.73 | 1.03 | 8.46 | 6.6 | 0.681 | 1.34 | 2.61 | 1.24 | 4.95 | 1.65 | 1.93 | 4.09 | 0.885 | 0.764 | 0.428
29 | VGTKRYVAPEV [ACVRL1_Y375_M376V] | 0.61 | 0.309 | 0.444 | 0.332 | 0.464 | 0.474 | 0.658 | 0.451 | 0.351 | 0.477 | 0.422 | 0.544 | 0.458 | 0.724 | 0.403 | 0.354
30 | VHSGTYQVTVC [MYBPC3_Y1043_R1048C] | 1.03 | 0.749 | 0.655 | 0.51 | 0.93 | 0.516 | 1.23 | 0.555 | 0.588 | 1.01 | 0.575 | 0.883 | 0.684 | 0.694 | 0.599 | 0.517
31 | VIDGKYAFKPK [GTF2E2_Y137] | 0.413 | 0.264 | 0.304 | 0.348 | 0.329 | 0.276 | 0.457 | 0.348 | 0.412 | 0.421 | 0.323 | 0.585 | 0.328 | 0.873 | 0.602 | 0.451
32 | VIGRMYDYHVL [RPF2_Y109] | 0.966 | 1.33 | 1.7 | 6.62 | 3.7 | 9.05 | 0.859 | 0.504 | 0.538 | 0.976 | 5.17 | 0.65 | 0.643 | 0.927 | 1.71 | 1.93
33 | VIKSSYQVAKA [CPT1B_Y534_E531K] | 0.588 | 0.364 | 0.414 | 0.391 | 0.428 | 0.326 | 0.749 | 0.34 | 0.391 | 0.406 | 0.371 | 0.489 | 0.458 | 0.783 | 0.503 | 0.41
